From patent US20110269679A1, “INHIBITORS OF AMYLOID FIBRIL FORMATION AND USES THEREOF” (priority 2004, published 2011)
“Also recorded” adds a separate entry of the source.

How the values were obtained:
[1] = molecular target: T1, IAPP 1-37 (Homo sapiens, UniProt P10997); assay: Negative stain electron microscopy of IAPP amyloid fibrils; conditions: negatively-stained preparations, IAPP + peptide, molar ratio 1:10
T1 sequence (P10997 34-70): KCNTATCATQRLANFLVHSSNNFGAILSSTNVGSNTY
From the text: 2. Negative Stain Electron Microscopy: IAPP amyloid morphology and relative density of the fibrils can be examined by transmission EM techniques. This provides information of the morphology of the aggregates formed (e.g., amorphous, fibrillar, truncated/protofilament structures, and/or abnormal lateral aggregation profiles). In addition, scanning of multiple grids and samples can be performed by an experienced EM technician who will assess the relative amount of fibrils formed in the presence of each inhibitor. This supporting evidence can be used to rank the relative activities of the inhibitors. Aliquots are taken from the samples used for CD analysis, and applied to pioloform coated grids, blotted dry, and stained with phosphotungstic acid (pH 7.0).

[2] = molecular target: T1, IAPP 1-37; assay: Circular dichroism (CD): IAPP random coil to β-sheet conformational transition; conditions: for CD activity of modified or truncated tripeptides compared with ANF: significantly lower molar ratios than ANF
From the text: 1. Circular Dichroism (CD): Amyloidogenic peptides and proteins undergo a conformational transition from a native to β-sheet conformation. […] In the case of peptides such as Aβ and IAPP, the non-fibrillar forms are essentially random coils that subsequently convert to a β-sheet under different conditions of pH and concentration.
CD provides a global view of the peptide secondary structure over an extended time course that can be used to monitor the amyloid conformational transition (L e. , diagnostic absorption minima for β-conformation at 218 nm). IAPP is initially treated with hexafluroisopropanol (HFIP) and trifluroacetic acid (TFA), to ensure it is in a monomeric form. IAPP 1-37 (50 μM) in the presence of inhibitors (50 μM-1.0 mM) are compared to controls, with spectra collected twice daily for a period of 72 hours. (β-sheet conversion and precipitation occurs at 48-72 hrs depending on conditions used.) Inhibitors can be evaluated for their ability to maintain IAPP in a random or non-β conformation. This can be determined by direct comparisons of the spectra obtained, and by quantitative analyses using deconvolution algorithms (e.g., Jasco J720 spectropolarimeter contained in the inventor's laboratory, and equipped with Spectra Manager).

[3] = test system: rat insulinoma line (RIN-1056A) exposed to exogenous IAPP 1-37; assay: IAPP amyloid toxicity assay in RIN cells (AlamarBlue cell viability); type: cell-based; conditions: molar ratio of 1:20 [IAPP:inhibitor]
Procedure: 3. IAPP Amyloid Toxicity: Amyloid fibril cytotoxicity may be due to an apoptotic mechanism and/or mechanical disruption of the plasma membrane. The ability of inhibitors to prevent toxicity in cells exposed to exogenous amyloid is another indication of activity that is assessed. A rat insulinoma line (RIN-1056A) having β-cell-like characteristics is exposed to 10 μM IAPP 1-37 with inhibitors added simultaneously to the medium at 1-20 fold excess. IAPP and inhibitors are not pre-mixed, but are added separately to the cell culture medium to maximize the similarities to conditions in vivo.
Toxicity is assayed both over the short (sampling every 2 hr over an 8-10 hr period) and long term (every 12 hr for a period of 6-7 days). Data from these investigations will indicate if the inhibitors are able to regulate this more physiological action of IAPP.

[4] = molecular target: T2, full-length IAPP1-37 (Homo sapiens, UniProt P10997); conditions: earlier work, Fraser WO 02/24727; cited from earlier work
T2 construct: When combined with full-length IAPP1-37 at relatively low molar ratios of 1:5 and 1:1
T2 sequence (P10997 34-70): T1 sequence (P10997 34-70)

Row | relative level/density and morphology of IAPP amyloid fibrils (EM) [1] | Substance | activity in the RIN-cell toxicity assay using exogenous IAPP [3] | inhibitory activity of hexapeptide fragments [4] | also measured
1 | significantly reduced density of fibrils | AGF: tripeptide ANF substituted with G at its second position (Tripeptide derived from human IAPP) | more activity than ANG (SEQ. ID. NO. 27) or ANF (SEQ. ID. NO. 24) |  | CD activity of modified or truncated tripeptides compared with ANF [2]: similar, but more potent, activities at significantly lower molar ratios
2 |  | ANFL: tetrapeptide sub-fragment of hexapeptide ANFLVH (Tetrapeptide derived from human IAPP) | showed activity |  | 
3 |  | ANFLV: pentapeptide sub-fragment of hexapeptide ANFLVH (Pentapeptide derived from human IAPP) | showed activity |  | 
4 |  | ANFLVH: original hexapeptide from the IAPP 8-20 domain (13-18), disclosed in WO 02/24727 (Hexapeptide derived from human IAPP) |  | displayed inhibitory activity | 
5 |  | GAILSS: hexapeptide from the IAPP20-29 region, disclosed in WO 02/24727 (Hexapeptide derived from human IAPP) |  | displayed inhibitory activity | 
6 | significantly reduced density of fibrils | GNF: tripeptide ANF substituted with G at its first position (Tripeptide derived from human IAPP) | more activity than ANG (SEQ. ID. NO. 27) or ANF (SEQ. ID. NO. 24) |  | CD activity of modified or truncated tripeptides compared with ANF [2]: similar, but more potent, activities at significantly lower molar ratios
7 | active | NFL: truncated tripeptide of hexapeptide ANFLVH (Tripeptide derived from human IAPP) |  |  | CD activity of modified or truncated tripeptides compared with ANF [2]: similar, but more potent, activities at significantly lower molar ratios
8 |  | NFLVHS: hexapeptide from the IAPP 8-20 domain, disclosed in WO 02/24727 (Hexapeptide derived from human IAPP) |  | displayed inhibitory activity | 
9 |  | SNNFGA: hexapeptide from the IAPP20-29 region, disclosed in WO 02/24727 (Hexapeptide derived from human IAPP) |  | displayed inhibitory activity | 

Row | Substance | relative level/density and morphology of IAPP amyloid fibrils (EM) [1] | activity in the RIN-cell toxicity assay using exogenous IAPP [3] | inhibitory activity of hexapeptide fragments [4] | also measured
10 | ANF: truncated tripeptide of hexapeptide ANFLVH, IAPP residues 13-15 (Tripeptide derived from human IAPP) | reduced the relative levels of fibrils, and altered the morphology of the aggregates which were formed; also recorded: reduced the relative levels of fibrils and altered the morphology of the aggregates which were formed | showed activity; also recorded: greater activity than the tetra- or penta-peptide |  | inhibition of IAPP conformational change from random coil to β-sheet (CD) ([2]; combined with IAPP at a molar ratio of 1:10): inhibited this conformational change
11 | ANG: tripeptide ANF substituted with G at its third position (Tripeptide derived from human IAPP) | lower activity based upon the presence of multiple aggregate forms | lower activity in the toxicity assay |  | 
